The results in this text go back to patent US20250195578A1, “MEDIUM COMPOSITION FOR CULTURING URINE-DERIVED STEM CELL, METHOD FOR ISOLATING AND CULTURING URINE-DERIVED STEM CELL USING SAME, URINE-DERIVED STEM CELL WITH IMPROVED THERAPEUTIC FUNCTION FOR RENAL DISEASE, AND CELL THERAPY PRODUCT COMPOSITION CONTAINING SAME” (EHLBIO CO., LTD., priority 2021, published 2025).

The subject of series [1] is klotho gene. Put plainly: Optimal additive concentration: klotho gene expression in urine-derived stem cells. Type of series: cell-based, human. Conditions: for effect on klotho gene expression of addition to TM8 medium: compared to control group, dose-dependent; for optimal concentration (klotho gene expression): enhancement in gene expression relative to added dosage. On the procedure:
(§1) In this Example, cell proliferation rate or klotho gene analysis was conducted with various concentrations of lipid mixture (CDLC), T3, FGF23, Calcifediol, and PTH in the TM8 culture medium to explore their optimal concentrations (see FIG. 5).
Furthermore, FGF23, Calcifediol, and PTH that are added to the culture medium of the present disclosure are growth factors and hormones that interact through the endocrine system in the human kidney. The klotho proteins in the human body mediate these interactions. The inventors aimed to enhance the expression of klotho proteins in urine-derived stem cells by mimicking the endocrine system in the human body through the composition of the culture medium. In this Example, evaluation was made of the enhancement of klotho gene expression in urine-derived stem cells in various concentration ranges of FGF23, Calcifediol, and PTH to determine their optimal concentrations.
(§2) Additionally, in this Example, to explore the optimal concentrations while excluding the interactions among the substances, each substance was individually added to the TM8 basal medium (hereinafter referred to as proliferation or klotho gene TM8-Basal), and cell expression was analyzed and compared. The TM8 medium containing all substances at their optimal concentrations was used as the control group (FIG. 6).

The test system of series [2] is urine-derived stem cells. Put plainly: Optimal additive concentration: cell proliferation rate of urine-derived stem cells. Type of series: cell-based, human. Particulars: enhancement in proliferation relative to added dosage. On the procedure:
as §1
Specifically, CDLC was used to compensate for the decrease in cell proliferation rate caused by low serum usage, while T3 was used to facilitate the proliferation of urine-derived stem cells with characteristics of epithelial cells. In this example, evaluation was made of the improvement of cell proliferation rate in urine-derived stem cells in various concentration ranges of lipid mixture and T3 to determine their optimal concentrations.
as §2

`C=C1CC[C@H](O)C/C1=C/C=C1\CCC[C@]2(C)[C@@H]([C@H](C)CCCC(C)(C)O)CC[C@@H]12` [Calcifediol, reference compound]: in series [1], the “effect on klotho gene expression of addition to TM8 medium” value (“effect on klotho gene expression” below) is “increased klotho gene expression” and the “optimal concentration (klotho gene expression)” value came out at 100 nM.
`N[C@@H](Cc1cc(I)c(Oc2ccc(O)c(I)c2)c(I)c1)C(=O)O` [T3, Triiodo-L-thyronine]: the “optimal concentration (cell proliferation)” value in series [2] worked out at 10 nM.

B1: PTH: parathyroid hormone (PTH), medium additive (Sigma-Aldrich) (peptide, UniProt P01270 32-115, looked up)
Parathyroid hormone: SVSEIQLMHNLGKHLNSMERVEWLRKKLQDVHNFVALGAPLAPRDAGSQRPRKKEDNVLVESHEKSLGEADKADVNVLTKAKSQ
modifications: Parathyroid hormone
Consider B1, for which, in series [1], the “effect on klotho gene expression” value is recorded as “increased klotho gene expression” and the “optimal concentration (klotho gene expression)” value amounted to 100 nM.

B2: FGF23: growth factor added to the culture medium (Sigma-Aldrich) (protein, UniProt Q9GZV9 25-251, looked up)
Fibroblast growth factor 23: YPNASPLLGSSWGGLIHLYTATARNSYHLQIHKNGHVDGAPHQTIYSALMIRSEDAGFVVITGVMSRRYLCMDFRGNIFGSHYFDPENCRFQHQTLENGYDVYHSPQYHFLVSLGRAKRAFLPGMNPPPYSQFLSRRNEIPLIHFNTPIPRRHTRSAEDDSERDPLNVLKPRARMTPAPASCSQELPSAEDNSPMASDPLGVVRGGRVNTHAGGTGPEGCRPFAKFI
Regarding B2, in series [1], the “effect on klotho gene expression” value is listed as “increased klotho gene expression” and the “optimal concentration (klotho gene expression)” value was found to be 10 ng/mL.
